Experimental data as given in patent US20220194999A1 (Janssen / Centocor, published 2022).

Columns and labels:
[1] = target: T1, HLA-A*02:01 class I complex (conditional p*HLA*02:01, biotinylated heavy chain with beta2-microglobulin) (human, biotinylated heavy chain); experiment: UV peptide exchange, HLA class I ELISA, % of Pos peptide;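 for Average %: Streptavidin-captured HLA complexes after exchange detected via HRP anti-human B2M antibody, absorbance read, colour scales with intact complex, normalized to exchange control peptide as 100%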;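 for Exch I (%): Streptavidin-captured HLA complexes after exchange detected via HRP anti-human B2M antibody, absorbance read, colour scales with intact complex, normalized to exchange control peptide as 100%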;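 for Exch II (%): Streptavidin-captured HLA complexes after exchange detected via HRP anti-human B2M antibody, absorbance read, colour scales with intact complex, normalized to exchange control peptide as 100%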
T1 construct: UV-labile peptide p* is cleaved and exchanged for the test peptide; also called HLA 2.1
Description: (§1) The HLA class I ELISA is an enzyme immunoassay based on the detection of beta2-microglobulin (B2M) of (peptide-stabilized) HLA class I complexes. To this end streptavidin is bound onto polystyrene microtiter wells. After washing and blocking, HLA complex present in exchange reaction mixtures or ELISA controls is captured by the streptavidin on the microtiter plate via its biotinylated heavy chain. Non-bound material is removed by washing. Subsequently, horseradish peroxidase (HRP)-conjugated antibody to human B2M is added. […] In the latter case B2M is removed during the washing step. After removal of non-bound HRP conjugate by washing, a substrate solution is added to the wells. A colored product is formed in proportion to the amount of intact HLA complex present in the samples. After the reaction has been terminated by the addition of a stop solution, absorbance is measured in a microtiter plate reader. The absorbance is normalized to the absorbance of an exchange control peptide (represents 100%). Also, suboptimal HLA binding of peptides with a moderate to low affinity for HLA class I molecules can be detected by this ELISA technique
(§2) Coating wells of two NUNC MaxiSorp™ 96-well ELISA plates: only the contents of one coating buffer capsule were dissolved in 100 mL of distilled water (0.05 M carbonate-bicarbonate buffer, pH 9.6 at 25° C.). 46 μL of Streptavidin stock solution were added to 23 mL coating buffer. 100 μL of the Streptavidin stock solution were added to all wells. Each microtiter plate was covered with an adhesive seal and incubated overnight at room temperature (18-25° C.).

[2] = target: T1, HLA-A*02:01 class I complex …; experiment: UV peptide exchange, HLA class I ELISA; low end of the group, member by Table 4
Description: as §1, §2

[3] = target: T1, HLA-A*02:01 class I complex …; experiment: UV peptide exchange, HLA class I ELISA; high end of the group, member by Table 4
Description: as §1, §2

[4] = target: T1, HLA-A*02:01 class I complex …; experiment: UV peptide exchange, HLA class I ELISA, % of Pos peptide; remark: listed apart in the source
[5] = target: T1, HLA-A*02:01 class I complex …; experiment: as above; remark: listed apart in the source
Description: as §1, §2

Row | Binder | Average % [1] [%] | Exch I (%) [1] [%] | Exch II (%) [1] [%] | average relative binding (%) [2] [%] | average relative binding (%) [3] [%] | Mutant Binding [4] [%] | average relative binding (%) [5] [%]
1 | LLVVGAAGV (also called M051) [KRAS_G12A2 mimic peptide LLVVGAAGV] | 33.3 | 34.1 | 32.5 | 33 to 38 |  |  | 
2 | LMVVGACGV (also called M062) [KRAS_G12C3 mimic peptide LMVVGACGV] | 48.7 | 47.1 | 50.4 |  | 41 to 49 |  | 
3 | YLDCGIHSG (also called M020) [CTNNB1.S33C mutant peptide YLDCGIHSG] | 33.9 | 34.8 | 33 |  |  | 34.8 | 
4 | YLDCGIHSV (also called M022) [CTNNB1_S33C5 mimic peptide YLDCGIHSV] | 102 | 100 | 104 | 102 to 113 |  |  | > 100
5 | GLKDLLNPI (also called M080) [PIK3CA.E453K mutant peptide GLKDLLNPI] | 79.4 | 73.8 | 84.9 |  | 70 to 79 |  | 
6 | ILNREIDFA (also called M090) [PIK3CA.G118D mutant peptide ILNREIDFA] | 50.4 | 53.1 | 47.8 |  |  | 50.4 | 
7 | CYLYYYSYLL (also called M101) [PTEN R173C2 mimic peptide CYLYYYSYLL] | 18.3 | 16.1 | 20.6 | 18 to 28 |  |  | 
8 | CYVYYYSYLL (also called M100) [PTEN.R173C mutant peptide CYVYYYSYLL] | 38.4 | 38.2 | 38.5 |  | 33 to 38 |  | 
9 | NMDEYVHNL (also called M113) [SF3B1_R625H9 mimic peptide NMDEYVHNL] | 58.1 | 62 | 54.3 |  | 50 to 58 |  | 
10 | YMDSGIHFV (also called M033) [CTNNB1_S37F6 mimic peptide YMDSGIHFV] | 99.8 | 104 | 95.5 |  | 90 to 100 |  | 
11 | YLDSGIHFG (also called M030) [CTNNB1.S37F mutant peptide YLDSGIHFG] | 53.4 | 53.7 | 53.2 |  |  | 53.7 | 
12 | VLSDAISAV (also called M121; SOX17_S40312) [SOX17_S403I2 mimic peptide VLSDAISAV] | 90.1 | 89.3 | 90.9 | 90 to 100 |  |  | 
13 | KLYPVQLWV (also called M131) [TP53_C141Y2 mimic peptide KLYPVQLWV] | 81.9 | 84.1 | 79.8 | 80 to 88 |  |  | 
14 | KTYPVQLWV (also called M130) [TP53.C141Y mutant peptide KTYPVQLWV] | 68.9 | 66.6 | 71.2 |  |  | 68.9 | 
15 | KMYPVQLWL (also called M133) [TP53_C141Y8 mimic peptide KMYPVQLWL] | 112 | 122 | 103 |  | 102 to 113 |  | > 100
16 | ALNNMFCQV (also called M161) [TP53_K132N5 mimic peptide ALNNMFCQV] | 69.3 | 69.7 | 68.8 |  | 61 to 69 |  | 
17 | ALNNMFCQL (also called M160) [TP53.K132N mutant peptide ALNNMFCQL] | 41.3 | 39.6 | 43.1 | 41 to 49 |  | 41.3 | 
18 | QLWVDSTPL (also called M180) [TP53.P152L mutant peptide QLWVDSTPL] | 86.2 | 84.3 | 88.1 |  |  | 86.2 | 
19 | YQGSYGFLL (also called M200) [TP53.R110L mutant peptide YQGSYGFLL] | 11.9 | 14.3 | 9.6 |  |  |  | < 15
20 | YQGSYGFLI (also called M201) [TP53_R110L3 mimic peptide YQGSYGFLI] | 8.9 | 7.1 | 10.8 |  |  |  | < 15
21 | YQGSYGFLV (also called M202) [TP53_R110L4 mimic peptide YQGSYGFLV] | 49.6 | 53.6 | 45.6 | 50 to 58 |  |  | 
22 | SMTCTYFPV (also called M213) [TP53_S127F7 mimic peptide SMTCTYFPV] | 88.4 | 83.4 | 93.3 |  | 80 to 88 |  | 
23 | SMTCTYFPI (also called M215) [TP53_S127F12 mimic peptide SMTCTYFPI] | 27.5 | 32.2 | 22.7 |  | 18 to 28 |  | 
24 | LLGRNSFEM (also called M220) [TP53.V272M mutant peptide LLGRNSFEM] | 50.9 | 58.8 | 42.9 |  |  | 50.9 | 
25 | VVPCEPPEV (also called M230) [TP53.Y220C mutant peptide VVPCEPPEV] | 33.5 | 29.4 | 37.5 |  |  | 33.5 | 
26 | VLPCEPPEV (also called M231) [TP53_Y220C2 mimic peptide VLPCEPPEV] | 70 | 66.3 | 73.7 | 70 to 79 |  |  | 
27 | VMPCEPPEV (also called M232) [TP53_Y220C3 mimic peptide VMPCEPPEV] | 60.9 | 62.9 | 58.9 | 61 to 69 |  |  | 
28 | RLIHRDLAA (also called M240) [ERBB2.V842I mutant peptide RLIHRDLAA] | 7.2 | 6.8 | 7.7 |  |  |  | < 15
29 | SVTCTYFPA (also called M210) [TP53.S127F mutant peptide SVTCTYFPA] | 8.6 | 7.7 | 9.4 |  |  |  | < 15
